Laboratory results published in patent publication US7198903B2, “Binding domains between presenilins and their substrates as targets for drug screening” (Vlaams Interuniversitair Instituut voor Biotechnologie VZW, priority 2001, dated 2007).

Target: T1, γ-secretase cleavage of APP-C99 (CHAPS extracts of HeLa cell membranes) (Homo sapiens, UniProt P49768)
T1 construct: CHAPS extracts of HeLa cell membranes were incubated with the APP-C99flag-tagged substrate; endogenous in cells; host or cells: HeLa cell membranes (CHAPS extract)
T1 sequence (Q96BI3 whole entry, other chains not shown): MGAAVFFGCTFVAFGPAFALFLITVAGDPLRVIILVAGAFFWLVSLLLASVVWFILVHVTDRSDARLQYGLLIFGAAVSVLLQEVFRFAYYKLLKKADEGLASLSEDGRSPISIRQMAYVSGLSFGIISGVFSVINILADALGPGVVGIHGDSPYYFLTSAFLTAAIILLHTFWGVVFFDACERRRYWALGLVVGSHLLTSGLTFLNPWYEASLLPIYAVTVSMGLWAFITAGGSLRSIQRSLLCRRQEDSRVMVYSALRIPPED
T1 sequence (Q92542 34-709, other chains not shown, further chain): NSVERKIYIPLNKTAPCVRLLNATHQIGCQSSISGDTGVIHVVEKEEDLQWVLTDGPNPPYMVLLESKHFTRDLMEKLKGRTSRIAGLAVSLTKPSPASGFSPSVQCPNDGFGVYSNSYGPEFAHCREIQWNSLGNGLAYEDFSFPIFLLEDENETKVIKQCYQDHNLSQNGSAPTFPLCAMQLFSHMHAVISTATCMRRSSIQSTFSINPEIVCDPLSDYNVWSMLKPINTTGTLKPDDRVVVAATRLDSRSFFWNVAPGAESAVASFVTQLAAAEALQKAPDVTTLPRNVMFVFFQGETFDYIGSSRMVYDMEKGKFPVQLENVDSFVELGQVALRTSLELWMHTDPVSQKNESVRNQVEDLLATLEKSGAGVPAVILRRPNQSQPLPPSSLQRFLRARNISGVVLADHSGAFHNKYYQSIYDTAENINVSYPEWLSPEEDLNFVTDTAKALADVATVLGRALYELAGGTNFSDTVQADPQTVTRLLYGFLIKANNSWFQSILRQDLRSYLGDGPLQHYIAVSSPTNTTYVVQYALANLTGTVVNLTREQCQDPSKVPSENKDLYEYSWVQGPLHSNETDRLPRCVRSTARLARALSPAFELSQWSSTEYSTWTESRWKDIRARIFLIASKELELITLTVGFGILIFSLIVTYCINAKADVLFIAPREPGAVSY
T1 sequence (Q9NZ42 whole entry, other chains not shown, further chain): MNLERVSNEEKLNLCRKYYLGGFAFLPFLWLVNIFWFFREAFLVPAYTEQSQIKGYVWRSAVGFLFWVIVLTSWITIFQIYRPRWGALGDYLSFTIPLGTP
Assay: cell-free assay of in vitro production of amyloid peptides (Aβ) from APP-C99flag-tagged substrate, SDS-PAGE/western blotting
Type: biochemical
Conditions: CHAPS extracts of HeLa cell membranes incubated with APP-C99flag-tagged substrate plus peptide; DMSO control; western blot with antibody recognizing Aβ (FIG. 6)
Text: FIG. 6: Peptides that mimic the binding domains in PS1 or APP inhibit the in vitro production of amyloid peptides (Aβ). The PS1-APP binding is mediated by the C-terminus of PS1 (and the first transmembrane domain of PS1) and part of the APP transmembrane region downstream of the γ-secretase cleavage site (and bearing the FAD-associated mutations affecting the γ-secretase cleavage). Peptides mimicking these domains were synthesized as such or with a conserved transmembrane region (TMR) or palmityol group (palm) attached to it. The amino acid sequence of the transmembrane region is NH2-[…]-COOH (SEQ ID NO:20) and the origin of the TMR is fully described in PCT International Publication WO 02/00882. CHAPS extracts of HeLa cell membranes were incubated with the APP-C99flag-tagged substrate in the presence of DMSO (control) or the different peptides at the concentrations indicated (peptide). γ-secretase inhibitor (10 μM) was included as a positive control for Aβ inhibition. After the reaction, samples were analyzed by SDS-PAGE followed by western blotting using an antibody recognizing Aβ. […]
Fixed amounts of recombinant APP-C99 are mixed with cleared cell extracts (for example extracted with Triton X100, CHAPS, CHAPSO or Nonidet p40) and incubated overnight at 37° C. or 4° C. De novo formed Aβ is monitored by SDS/PAGE combined with western blotting. […]

Row | Substance | inhibition of in vitro Aβ production
1 | NH2-ATVIVITLVMLK KKQ-TMR-COOH [SEQ ID NO:12] | highest inhibition
2 | NH2-VVIATVIVITLVMLKKKQ-TMR-COOH [SEQ ID NO:7] | highest inhibition
